From article PMC10540216, “Activity Guided Azide-methyllysine Photo-trapping for Substrate Profiling of Lysine Demethylases” (Journal of the American Chemical Society, 2023)

System: KDM4A-I71AzF
Experiment: CASI: photo-crosslinking with HEK293T cell extracts, StrepTactin enrichment and LC-MS/MS proteomics;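 further: lysates from HEK293T cells pretreated with a KDM4 inhibitor to raise proteome methylation, affinity-purified after ±UV, gel-resolved, trypsin-digested, with exclusive unique peptides per protein averaged per condition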
Type: binding, human
Conditions: sheet "Final results but with 0.01"

| Molecule | Fold change (+UV/-UV) |
| --- | --- |
| TOP1_HUMAN (protein, UniProt P11387 2-765, looked up) DNA topoisomerase 1: SGDHLHNDSQIEADFRLNDSHKHKDKHKDREHRHKEHKKEKDREKSKHSNSEHKDSEKKHKEKEKTKHKDGSSEKHKDKHKDRDKEKRKEEKVRASGDAKIKKEKENGFSSPPQIKDEPEDDGYFVPPKEDIKPLKRPRDEDDADYKPKKIKTEDTKKEKKRKLEEEEDGKLKKPKNKDKDKKVPEPDNKKKKPKKEEEQKWKWWEEERYPEGIKWKFLEHKGPVFAPPYEPLPENVKFYYDGKVMKLSPKAEEVATFFAKMLDHEYTTKEIFRKNFFKDWRKEMTNEEKNIITNLSKCDFTQMSQYFKAQTEARKQMSKEEKLKIKEENEKLLKEYGFCIMDNHKERIANFKIEPPGLFRGRGNHPKMGMLKRRIMPEDIIINCSKDAKVPSPPPGHKWKEVRHDNKVTWLVSWTENIQGSIKYIMLNPSSRIKGEKDWQKYETARRLKKCVDKIRNQYREDWKSKEMKVRQRAVALYFIDKLALRAGNEKEEGETADTVGCCSLRVEHINLHPELDGQEYVVEFDFLGKDSIRYYNKVPVEKRVFKNLQLFMENKQPEDDLFDRLNTGILNKHLQDLMEGLTAKVFRTYNASITLQQQLKELTAPDENIPAKILSYNRANRAVAILCNHQRAPPKTFEKSMMNLQTKIDAKKEQLADARRDLKSAKADAKVMKDAKTKKVVESKKKAVQRLEEQLMKLEVQATDREENKQIALGTSKLNYLDPRITVAWCKKWGVPIEKIYNKTQREKFAWAIDMADEDYEF | 0 |
| CALD1_HUMAN (protein, UniProt Q05682 1-793, looked up) Caldesmon: MDDFERRRELRRQKREEMRLEAERIAYQRNDDDEEEAARERRRRARQERLRQKQEEESLGQVTDQVEVNAQNSVPDEEAKTTTTNTQVEGDDEAAFLERLARREERRQKRLQEALERQKEFDPTITDASLSLPSRRMQNDTAENETTEKEEKSESRQERYEIEETETVTKSYQKNDWRDAEENKKEDKEKEEEEEEKPKRGSIGENQVEVMVEEKTTESQEETVVMSLKNGQISSEEPKQEEEREQGSDEISHHEKMEEEDKERAEAERARLEAEERERIKAEQDKKIADERARIEAEEKAAAQERERREAEERERMREEEKRAAEERQRIKEEEKRAAEERQRIKEEEKRAAEERQRIKEEEKRAAEERQRARAEEEEKAKVEEQKRNKQLEEKKHAMQETKIKGEKVEQKIEGKWVNEKKAQEDKLQTAVLKKQGEEKGTKVQAKREKLQEDKPTFKKEEIKDEKIKKDKEPKEEVKSFMDRKKGFTEVKSQNGEFMTHKLKHTENTFSRPGGRASVDTKEAEGAPQVEAGKRLEELRRRRGETESEEFEKLKQKQQEAALELEELKKKREERRKVLEEEEQRRKQEEADRKLREEEEKRRLKEEIERRRAEAAEKRQKMPEDGLSDDKKPFKCFTPKGSSLKIEERAEFLNKSVQKSSGVKSTHQAAIVSKIDSRLEQYTSAIEGTKSAKPTKPAASDLPVPAEGVRNIKSMWEKGNVFSSPTAAGTPNKETAGLKVGVSSRINEWLTKTPDGNKSPAPKPSDLRPGDVSSKRNLWEKQSVDKVTSPTKV | 1.5 |
| SND1_HUMAN (protein, UniProt Q7KZF4 2-910, looked up) Staphylococcal nuclease …: ASSAQSGGSSGGPAVPTVQRGIIKMVLSGCAIIVRGQPRGGPPPERQINLSNIRAGNLARRAAATQPDAKDTPDEPWAFPAREFLRKKLIGKEVCFTIENKTPQGREYGMIYLGKDTNGENIAESLVAEGLATRREGMRANNPEQNRLSECEEQAKAAKKGMWSEGNGSHTIRDLKYTIENPRHFVDSHHQKPVNAIIEHVRDGSVVRALLLPDYYLVTVMLSGIKCPTFRREADGSETPEPFAAEAKFFTESRLLQRDVQIILESCHNQNILGTILHPNGNITELLLKEGFARCVDWSIAVYTRGAEKLRAAERFAKERRLRIWRDYVAPTANLDQKDKQFVAKVMQVLNADAIVVKLNSGDYKTIHLSSIRPPRLEGENTQDKNKKLRPLYDIPYMFEAREFLRKKLIGKKVNVTVDYIRPASPATETVPAFSERTCATVTIGGINIAEALVSKGLATVIRYRQDDDQRSSHYDELLAAEARAIKNGKGLHSKKEVPIHRVADISGDTQKAKQFLPFLQRAGRSEAVVEYVFSGSRLKLYLPKETCLITFLLAGIECPRGARNLPGLVQEGEPFSEEATLFTKELVLQREVEVEVESMDKAGNFIGWLHIDGANLSVLLVEHALSKVHFTAERSSYYKSLLSAEEAAKQKKEKVWAHYEEQPVEEVMPVLEEKERSASYKPVFVTEITDDLHFYVQDVETGTQLEKLMENMRNDIASHPPVEGSYAPRRGEFCIAKFVDGEWYRARVEKVESPAKIHVFYIDYGNREVLPSTRLGTLSPAFSTRVLPAQATEYAFAFIQVPQDDDARTDAVDSVVRDIQNTQCLLNVEHLSAGCPHVTLQFADSKGDVGLGLVKEGLVMVEVRKEKQFQKVITEYLNAQESAKSARLNLWRYGDFRADDADEFGYSR | 1.5 |
| ACON_HUMAN (protein, UniProt Q99798 28-780, looked up) Aconitate hydratase, …: QRAKVAMSHFEPNEYIHYDLLEKNINIVRKRLNRPLTLSEKIVYGHLDDPASQEIERGKSYLRLRPDRVAMQDATAQMAMLQFISSGLSKVAVPSTIHCDHLIEAQVGGEKDLRRAKDINQEVYNFLATAGAKYGVGFWKPGSGIIHQIILENYAYPGVLLIGTDSHTPNGGGLGGICIGVGGADAVDVMAGIPWELKCPKVIGVKLTGSLSGWSSPKDVILKVAGILTVKGGTGAIVEYHGPGVDSISCTGMATICNMGAEIGATTSVFPYNHRMKKYLSKTGREDIANLADEFKDHLVPDPGCHYDQLIEINLSELKPHINGPFTPDLAHPVAEVGKVAEKEGWPLDIRVGLIGSCTNSSYEDMGRSAAVAKQALAHGLKCKSQFTITPGSEQIRATIERDGYAQILRDLGGIVLANACGPCIGQWDRKDIKKGEKNTIVTSYNRNFTGRNDANPETHAFVTSPEIVTALAIAGTLKFNPETDYLTGTDGKKFRLEAPDADELPKGEFDPGQDTYQHPPKDSSGQHVDVSPTSQRLQLLEPFDKWDGKDLEDLQILIKVKGKCTTDHISAAGPWLKFRGHLDNISNNLLIGAINIENGKANSVRNAVTQEFGPVPDTARYYKKHGIRWVVIGDENYGEGSSREHAALEPRHLGGRAIITKSFARIHETNLKKQGLLPLTFADPADYNKIHPVDKLTIQGLKDFTPGKPLKCIIKHPNGTQETILLNHTFNETQIEWFRAGSALNRMKELQQ | 0.4 |
| CX057_HUMAN (protein, UniProt Q6NSI4 1-855, looked up) RPA-related protein RADX: MSGESGQPEAGPSHAGLDWPNPERNRAGVPGGVIRRAGSQGPRSWIQKVLEQIMDSPRQCVTPSEVVPVTVLAVQRYLLEDEPRDTVPKPPLYCYDVTISDGVYQEKCYLDPSLNSLVYQNILKVGIQMRISRVSCLYNEKRIGQGILCIDNVHCGETSDSISLETPFRNRAHQEKPERPLRGGKSHYLALWNNEDPYGDIWLTDKQPEEHNFSDTKIISLSHLEMTWTNRRNFPALLVRILHKSKLRYYGKPDKKMIEPYQTFLEVADSSGTVSVIMWNALCPEWYKSLRVGLVLLLQDYSVKKSYPFRIQPVPVDPQIKLISTMEICLNLRDPPTNIIIIPEKQVKPEWRLPKLNHRFTTRSELDDMPENCICDVIGLLVFVGRVQRSKKKENREDFWSYRWIHIADGTSEQPFIVELFSTSQPEIFENIYPMAYFVCTQLKVVRNDNQVPKLLYLTTTNESGVFITGHRGQPYTYDAKVKNFIQWIRTKSDSGEQKNMVIGGYYPYPPVPETFSKYSSSIKVESLLTAISEVRKEIEDLQYREQKRIAIQGIITAIKYIPHSSATESASASETLRNANRPSTSQAARVEIQERNGKRHQDDEPVNSQYFQTTSTNLSLSNKIRILQGPHANPVAVPQPGASVQTKGIKPGMPSIFNRRANINANLQGKARKTISDRWESQLWREKKFGLIDHLHYSRVYPESIPRKFMFEHRKFLSDQYNSQPAKYVPPEGRPPKLDDFKSARSLGHFEVTILGLNHEIAIDVAFLPMYCPEDIRTSQIDTLLTSMNYSCAYPQDTTGNDRLPGPRAVAGDIIKAATELDRVHIVGILDICNLGNNKVEVYLHKIYSPENTS | 0 |
| DDX3X_HUMAN (protein, UniProt O00571 2-662, looked up) ATP-dependent RNA helicase …: SHVAVENALGLDQQFAGLDLNSSDNQSGGSTASKGRYIPPHLRNREATKGFYDKDSSGWSSSKDKDAYSSFGSRSDSRGKSSFFSDRGSGSRGRFDDRGRSDYDGIGSRGDRSGFGKFERGGNSRWCDKSDEDDWSKPLPPSERLEQELFSGGNTGINFEKYDDIPVEATGNNCPPHIESFSDVEMGEIIMGNIELTRYTRPTPVQKHAIPIIKEKRDLMACAQTGSGKTAAFLLPILSQIYSDGPGEALRAMKENGRYGRRKQYPISLVLAPTRELAVQIYEEARKFSYRSRVRPCVVYGGADIGQQIRDLERGCHLLVATPGRLVDMMERGKIGLDFCKYLVLDEADRMLDMGFEPQIRRIVEQDTMPPKGVRHTMMFSATFPKEIQMLARDFLDEYIFLAVGRVGSTSENITQKVVWVEESDKRSFLLDLLNATGKDSLTLVFVETKKGADSLEDFLYHEGYACTSIHGDRSQRDREEALHQFRSGKSPILVATAVAARGLDISNVKHVINFDLPSDIEEYVHRIGRTGRVGNLGLATSFFNERNINITKDLLDLLVEAKQEVPSWLENMAYEHHYKGSSRGRSKSSRFSGGFGARDYRQSSGASSSSFSSSRASSSRSGGGGHGSSRGFGGGGYGGFYNSDGYGGNYNSQGVDWWGN | 0.7778 |
| SYDM_HUMAN (protein, UniProt Q6PI48 48-645, looked up) Aspartate--tRNA ligase, …: VVRTNTCGELRSSHLGQEVTLCGWIQYRRQNTFLVLRDFDGLVQVIIPQDESAASVKKILCEAPVESVVQVSGTVISRPAGQENPKMPTGEIEIKVKTAELLNACKKLPFEIKNFVKKTEALRLQYRYLDLRSFQMQYNLRLRSQMVMKMREYLCNLHGFVDIETPTLFKRTPGGAKEFLVPSREPGKFYSLPQSPQQFKQLLMVGGLDRYFQVARCYRDEGSRPDRQPEFTQIDIEMSFVDQTGIQSLIEGLLQYSWPNDKDPVVVPFPTMTFAEVLATYGTDKPDTRFGMKIIDISDVFRNTEIGFLQDALSKPHGTVKAICIPEGAKYLKRKDIESIRNFAADHFNQEILPVFLNANRNWNSPVANFIMESQRLELIRLMETQEEDVVLLTAGEHNKACSLLGKLRLECADLLETRGVVLRDPTLFSFLWVVDFPLFLPKEENPRELESAHHPFTAPHPSDIHLLYTEPKKARSQHYDLVLNGNEIGGGSIRIHNAELQRYILATLLKEDVKMLSHLLQALDYGAPPHGGIALGLDRLICLVTGSPSIRDVIAFPKSFRGHDLMSNTPDSVPPEELKPYHIRVSKPTDSKAERAH | 1.2 |
